Data reported in patent US20230192896A1 (BIOVERATIV THERAPEUTICS, published 2023).

Assays:
FIXa-SM (FIXa+EGR-CMK) = target: T1, FIXa-SM (FIXa+EGR-CMK) (human, UniProt P00740 47-191; P00740 227-461, EGR-CMK (L-Glu-Gly-Arg chloromethyl ketone) covalently bound to the active site); experiment: BLI; class meaning: paragraph 914
T1 construct: BLI antigen bought from Haematologic Technologies (HCIXA-EGR); also called FIXa with substrate mimic

[1] = target: T2, free FIXa (activated Factor IX) (human, UniProt P00740 47-191; P00740 227-461); experiment: BLI; class meaning: paragraph 914
T2 construct: BLI antigen bought from Haematologic Technologies (HCIXA-0050); also called factor IXa

binding result (FIXa-SM (FIXa+EGR-CMK)) | binding result [1] | Binder
binds | – | BIIB-9-588 (antibody, V domains shown, IgG) VH: QVQLVQSGAEVKKPGASVKVSCKASGYTFTSYYMHWVRQAPGQGLEWMGIINPSGGSTTYAQKFQGRVTMTRDTSTSTVYMELSSLRSEDTAVYYCARDGGGSYDYWSGYWYDVWGQGTTVTVSS VL: EIVMTQSPATLSVSPGERATLSCRASQSVSSNLAWYQQKPGQAPRLLIYGASTRATGIPARFSGSGSGTEFTLTISSLQSEDFAVYYCQQAYNWPFTFGGGTKVEIK
binds | – | BIIB-9-611 (antibody, V domains shown, IgG) VH: QVQLVQSGAEVKKPGASVKVSCKASGYTFTSYYMHWVRQAPGQGLEWMGIINPSGGSTSYAQKFQGRVTMTRDTSTSTVYMELSSLRSEDTAVYYCAREVISRVSYFDLWGRGTLVTVSS VL: EIVMTQSPATLSVSPGERATLSCRASQSVSSNLAWYQQKPGQAPRLLIYGASTRATGIPARFSGSGSGTEFTLTISSLQSEDFAVYYCQQDNIHPYTFGGGTKVEIK
binds | – | BIIB-9-451 (antibody, V domains shown, IgG) VH: QLQLQESGPGLVKPSETLSLTCTVSGGSISSSSYYWGWIRQPPGKGLEWIGSISYSGSTYYNPSLKSRVTISVDTSKNQFSLKLSSVTAADTAVYYCARDSGGYYYQGFDYWGQGTLVTVSS VL: not shown
binds | – | BIIB-9-626 (antibody, V domains shown, IgG) VH: QVQLVQSGAEVKKPGASVKVSCKASGYTFTSYYMHWVRQAPGQGLEWMGVINPSGGSTSYAQKFQGRVTMTRDTSTSTVYMELSSLRSEDTAVYYCARDLQYSMTYFDYWGQGTLVTVSS VL: DIQMTQSPSTLSASVGDRVTITCRASQSISSWLAWYQQKPGKAPKLLIYKASSLESGVPSRFSGSGSGTEFTLTISSLQPDDFATYYCQQDGSYPPLTFGGGTKVEIK
binds | binds | BIIB-9-607 (antibody, V domains shown, IgG) VH: QLQLQESGPGLVKPSETLSLTCTVSGGSISSSSYYWGWIRQPPGKGLEWIGSISYSGSTYYNPSLKSRVTISVDTSKNQFSLKLSSVTAADTAVYYCARDRGYSYEDFDLWGRGTLVTVS VL: DIQMTQSPSTLSASVGDRVTITCRASQSISSWLAWYQQKPGKAPKLLIYKASSLESGVPSRFSGSGSGTEFTLTISSLQPDDFATYYCQQAGRYPLTFGGGTKVEIK
– | binds | BIIB-9-408 (antibody, V domains shown, IgG) VH: QVQLVQSGAEVKKPGASVKVSCKASGYTFTSYYMHWVRQAPGQGLEWMGIINPSGGSTTYAQKFQGRVTMTRDTSTSTVYMELSSLRSEDTAVYYCARDPGAYDDWSGYDDYGMDVWGQGTTVTVSS VL: EIVLTQSPATLSLSPGERATLSCRASQSVSSYLAWYQQKPGQAPRLLIYDASNRATGIPARFSGSGSGTDFTLTISSLEPEDFAVYYCQQAFVWPPITFGGGTKVEIK
binds | binds | BIIB-9-1280 (antibody, V domains shown, IgG) VH: QVQLVQSGAEVKKPGASVKVSCKASGYTFTSYYMVWVRQAPGQGLEWMGIINPSGGSTSYAQKFQGRVTMTRDTSTSTVYMELSSLRSEDTAVYYCARGPWYSYYYMDVWGKGTTVTVSS VL: not shown
binds | binds | BIIB-9-439 (antibody, V domains shown, IgG) VH: QVQLVQSGAEVKKPGASVKVSCKASGYTFTSYYMHWVRQAPGQGLEWMGIINPSGGSTTYAQKFQGRVTMTRDTSTSTVYMELSSLRSEDTAVYYCAREATESYYYMDVWGKGTTVTVSS VL: EIVMTQSPATLSLSPGERATLSCRASQSVSSYLAWYQQKPGQAPRLLIYDSSNRATGIPARFSGSGSGTDFTLTISSLEPEDFAVYYCQQRDNWPFTFGGGTKVEIK

The remaining lines, values behind:

Binder | binding result (FIXa-SM (FIXa+EGR-CMK)) | binding result [1]
BIIB-9-573 (antibody, V domains shown, IgG) VH: QLQLQESGPGLVKPSETLSLTCTVSGGSISSSSYYWGWIRQPPGKGLEWIGSIYYSGSTYYNPSLKSRVTISVDTSKNQFSLKLSSVTAADTAVYYCARESKTKGYLDLWGRGTLVTVSS VL: EIVLTQSPGTLSLSPGERATLSCRASQSVSSSFLAWYQQKPGQAPRLLIYGASSRATGIPDRFSGSGSGTDFTLTISRLEPEDFAVYYCQQSHSPPYTFGGGTKVEIK | binds | –
BIIB-9-567 (antibody, V domains shown, IgG) VH: QVQLVQSGAEVKKPGASVKVSCKASGYTFTSYYMHWVRQAPGQGLEWMGIINPSGGSTSYAQKFQGRVTMTRDTSTSTVYMELSSLRSEDTAVYYCARLGRRYYAYDGMDVWGQGTTVTVSS VL: not shown | binds | –
BIIB-9-472 (antibody, V domains shown, IgG) VH: EVQLVESGGGLVKPGGSLRLSCAASGFTFSSYSMNWVRQAPGKGLEWVSSISSSSSYIYYADSVKGRFTISRDNAKNSLYLQMNSLRAEDTAVYYCARGGRYSGSWSWNIWGQGTMVTVSS VL: not shown | binds | binds
BIIB-9-416 (antibody, V domains shown, IgG) VH: QVQLVQSGAEVKKPGASVKVSCKASGYTFTSYYMHWVRQAPGQGLEWMGIINPSGGSTSYAQKFQGRVTMTRDTSTSTVYMELSSLRSEDTAVYYCAREGPMLDYPTYSNWFDPWGQGTLVTVS VL: EIVMTQSPATLSLSPGERATLSCRASQSVSSYLAWYQQKPGQAPRLLIYDSSNRATGIPARFSGSGSGTDFTLTISSLEPEDFAVYYCQQRVVWPPTFGGGTKVEIK | – | binds
BIIB-9-619 (antibody, V domains shown, IgG) VH: QVQLVQSGAEVKKPGASVKVSCKASGYTFTSYYMHWVRQAPGQGLEWMGIINPSGGSTSYAQKFQGRVTMTRDTSTSTVYMELSSLRSEDTAVYYCARDGPRVSDYYMDVWGKGTTVTVSS VL: EIVLTQSPATLSLSPGERATLSCRASQSVSSYLAWYQQKPGQAPRLLIYDASNRATGIPARFSGSGSGTDFTLTISSLEPEDFAVYYCQQRDNWPFTFGGGTKVEIK | binds | –
BIIB-9-565 (antibody, V domains shown, IgG) VH: QLQLQESGPGLVKPSETLSLTCTVSGGSISSSSYYWGWIRQPPGKGLEWIGSIYYSGSTYYNPSLKSRVTISVDTSKNQFSLKLSSVTAADTAVYYCARAGMYSSYANWFDPWGQGTLVTVSS VL: EIVLTQSPATLSLSPGERATLSCRASQSVSSYLAWYQQKPGQAPRLLIYDASNRATGIPARFSGSGSGTDFTLTISSLEPEDFAVYYCQQDSNLPFTFGGGTKVEIK | binds | –
BIIB-9-419 (antibody, V domains shown, IgG) VH: QVQLVQSGAEVKKPGASVKVSCKASGYTFTSYYMHWVRQAPGQGLEWMGIINPSGGSTSYAQKFQGRVTMTRDTSTSTVYMELSSLRSEDTAVYYCAREPTFYASYFDLWGRGTLVTVS VL: EIVMTQSPATLSLSPGERATLSCRASQSVSSYLAWYQQKPGQAPRLLIYDSSNRATGIPARFSGSGSGTDFTLTISSLEPEDFAVYYCQQVSTHPYTFGGGTKVEIK | binds | –
BIIB-9-471 (antibody, V domains shown, IgG) VH: QVQLQESGPGLVKPSQTLSLTCTVSGGSISSGGYYWSWIRQHPGKGLEWIGYIYYSGSTYYNPSLKSRVTISVDTSKNQFSLKLSSVTAADTAVYYCARSGVSGSGSDNWFDPWGQGTTVTVSS VL: EIVLTQSPATLSLSPGERATLSCRASQSVSRYLAWYQQKPGQAPRLLIYDASNRATGIPARFSGSGSGTDFTLTISSLEPEDFAVYYCQQDYNYPFTFGGGTKVEIK | binds | binds
BIIB-9-885 (antibody, V domains shown, IgG) VH: QVQLVQSGAEVKKPGASVKVSCKASGYTFTSYYMHWVRQAPGQGLEWMGIINPSGGSTSYAQKFQGRVTMTRDTSTSTVYMELSSLRSEDTAVYYCAREGPMLDYPTYSNWFDPWGQGTLVTVSS VL: EIVLTQSPATLSLSPGERATLSCRASQSVSSYLAWYQQKPGQAPRLLIYDASKRATGIPARFSGSGSGTDFTLTISSLEPEDFAVYYCQQRVIWPPTFGGGTKVEIK | – | binds
BIIB-9-473 (antibody, V domains shown, IgG) VH: not shown VL: EIVLTQSPATLSLSPGERATLSCRASQSVSSYLAWYQQKPGQAPRLLIYDASNRATGIPARFSGSGSGTDFTLTISSLEPEDFAVYYCQQRSFLPYTFGGGTKVEIK | binds | –
BIIB-9-629 (antibody, V domains shown, IgG) VH: QVQLVQSGAEVKKPGASVKVSCKASGYTFTSYYMHWVRQAPGQGLEWMGVINPSGGSTSYAQKFQGRVTMTRDTSTSTVYMELSSLRSEDTAVYYCARDPSQDYATGTGWFDPWGQGTLVTVSS VL: DIQLTQSPSSLSASVGDRVTITCQASQDISNYLNWYQQKPGKAPKLLIYDASNLETGVPSRFSGSGSGTDFTFTISSLQPEDIATYYCQQLDSLPPTFGGGTKVEIK | – | binds
BIIB-9-883 (antibody, V domains shown, IgG) VH: QVQLVQSGAEVKKPGASVKVSCKASGYTFTSYYMHWVRQAPGQGLEWMGIINPSGGSTSYAQKFQGRVTMTRDTSTSTVYMELSSLRSEDTAVYYCARDGRLSYTWDRWGQGTLVTVSS VL: DIQMTQSPSSLSASVGDRVTITCQASQDITNYLNWYQQKPGKAPKLLIYDASNLETGVPSRFSGSGSGTDFTFTISSLQPEDIATYYCQQADHFPFTFGGGTKVEIK | binds | –
BIIB-9-469 (antibody, V domains shown, IgG) VH: QVQLVQSGAEVKKPGASVKVSCKASGYTFTSYYMHWVRQAPGQGLEWMGIINPSGGSTSYAQKFQGRVTMTRDTSTSTVYMELSSLRSEDTAVYYCARDLGYGRSYDFDLWGRGTLVTVSS VL: EIVMTQSPATLSVSPGERATLSCRASQSVSSNLAWYQQKPGQAPRLLIFGASTRATGIPARFSGSGSGTEFTLTISSLQSEDFAVYYCQQSNNFPFTFGGGTKVEIK | binds | –
BIIB-9-1266 (antibody, V domains shown, IgG) VH: QVQLVQSGAEVKKPGASVKVSCKASGYTFTSYYMHWVRQAPGQGLEWMGIINPSGGSTSYAQKFQGRVTMTRDTSTSTVYMELSSLRSEDTAVYYCARDHGWAIYGMDVWGQGTTVTVSS VL: EIVMTQSPATLSLSPGERATLSCRASQSVSSYLAWYQQKPGQAPRLLIYDSSNRATGIPARFSGSGSGTDFTLTISSLEPEDFAVYYCQQRLNFPFTFGGGTKVEIK | binds | binds
